The values below come from article PMC11379828.

One data set concerns the target T1, MBP-EFD (Arabidopsis thaliana, UniProt Q9M389 1-323).
T1 sequence: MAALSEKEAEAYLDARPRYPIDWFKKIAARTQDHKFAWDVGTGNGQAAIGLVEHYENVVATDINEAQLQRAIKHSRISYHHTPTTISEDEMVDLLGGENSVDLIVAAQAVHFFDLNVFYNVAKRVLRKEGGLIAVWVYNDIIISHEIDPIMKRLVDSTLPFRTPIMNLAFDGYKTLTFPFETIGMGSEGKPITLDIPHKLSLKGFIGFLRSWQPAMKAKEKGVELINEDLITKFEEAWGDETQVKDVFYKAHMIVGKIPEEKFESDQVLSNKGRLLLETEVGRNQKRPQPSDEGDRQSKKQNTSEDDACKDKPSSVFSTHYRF
The data set can be described thus: EMSA.

Another data set addresses T2, MBP-EFD (1-260 aa) (Arabidopsis thaliana, UniProt Q9M389 1-260).
T2 sequence: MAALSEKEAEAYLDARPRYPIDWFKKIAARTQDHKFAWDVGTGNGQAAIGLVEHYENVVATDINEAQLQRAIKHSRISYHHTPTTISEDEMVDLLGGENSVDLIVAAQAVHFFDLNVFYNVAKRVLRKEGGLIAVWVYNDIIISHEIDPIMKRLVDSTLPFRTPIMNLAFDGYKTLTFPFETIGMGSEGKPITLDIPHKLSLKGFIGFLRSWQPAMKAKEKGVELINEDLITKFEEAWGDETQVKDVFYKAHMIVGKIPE
The data set can be described thus: EMSA.

B1: HB21 probe, unmethylated (HB21+1410) (dsDNA)
DNA 1: ATCCTCTGTGACCATTGAAGCCAATCATACGACACCGTTTTTTGGAGATTACGACATCGGATTTGACGGTGAGGCTGACGAG
DNA 2: CTCGTCAGCCTCACCGTCAAATCCGATGTCGTAATCTCCAAAAAACGGTGTCGTATGATTGGCTTCAATGGTCACAGAGGAT
In the case of B1, the binding result in the data set with MBP-EFD and with MBP-EFD (1-260 aa) was “binds” throughout.

B2: HB21 probe, methylated (HB21+1410) (dsDNA)
DNA 1: ATCCTCTGTGACCATTGAAGCCAATCATACGACACCGTTTTTTGGAGATTACGACATCGGATTTGACGGTGAGGCTGACGAG
DNA 2: CTCGTCAGCCTCACCGTCAAATCCGATGTCGTAATCTCCAAAAAACGGTGTCGTATGATTGGCTTCAATGGTCACAGAGGAT
modifications: 5-methylcytosine, positions not given
Turning to B2, the binding result with MBP-EFD (1-260 aa) is “binds”.
